# Starred links: 1 amine or outer side, 2 acyl side, 3 side chain; linkers in the order of their positions; H or OH if unused. Positions of bridges follow the written chain, without caps; N, C: chain ends. Non-standard residues stand in square brackets, D forms with d. X1 = K(γGlu-G-γGlu-17-carboxy-heptadecanoyl), O=C(O)CCCCCCCCCCCCCCCCC(=O)N[C@@H](CCC(=O)NCC(=O)N[C@@H](CCC(=O)NCCCC[C@H](N[*:1])C(=O)[*:2])C(=O)O)C(=O)O; Trp(1-Me) = Cn1cc(C[C@H](N)C(=O)O)c2ccccc21; AEEA = NCCOCCOCC(=O)O; Sar = CNCC(=O)O
# Target: Human C3 (Complement tech cat #A113c) (human, UniProt P01024 23-1663)
# Sequence (P01024 23-1663 limits assumed): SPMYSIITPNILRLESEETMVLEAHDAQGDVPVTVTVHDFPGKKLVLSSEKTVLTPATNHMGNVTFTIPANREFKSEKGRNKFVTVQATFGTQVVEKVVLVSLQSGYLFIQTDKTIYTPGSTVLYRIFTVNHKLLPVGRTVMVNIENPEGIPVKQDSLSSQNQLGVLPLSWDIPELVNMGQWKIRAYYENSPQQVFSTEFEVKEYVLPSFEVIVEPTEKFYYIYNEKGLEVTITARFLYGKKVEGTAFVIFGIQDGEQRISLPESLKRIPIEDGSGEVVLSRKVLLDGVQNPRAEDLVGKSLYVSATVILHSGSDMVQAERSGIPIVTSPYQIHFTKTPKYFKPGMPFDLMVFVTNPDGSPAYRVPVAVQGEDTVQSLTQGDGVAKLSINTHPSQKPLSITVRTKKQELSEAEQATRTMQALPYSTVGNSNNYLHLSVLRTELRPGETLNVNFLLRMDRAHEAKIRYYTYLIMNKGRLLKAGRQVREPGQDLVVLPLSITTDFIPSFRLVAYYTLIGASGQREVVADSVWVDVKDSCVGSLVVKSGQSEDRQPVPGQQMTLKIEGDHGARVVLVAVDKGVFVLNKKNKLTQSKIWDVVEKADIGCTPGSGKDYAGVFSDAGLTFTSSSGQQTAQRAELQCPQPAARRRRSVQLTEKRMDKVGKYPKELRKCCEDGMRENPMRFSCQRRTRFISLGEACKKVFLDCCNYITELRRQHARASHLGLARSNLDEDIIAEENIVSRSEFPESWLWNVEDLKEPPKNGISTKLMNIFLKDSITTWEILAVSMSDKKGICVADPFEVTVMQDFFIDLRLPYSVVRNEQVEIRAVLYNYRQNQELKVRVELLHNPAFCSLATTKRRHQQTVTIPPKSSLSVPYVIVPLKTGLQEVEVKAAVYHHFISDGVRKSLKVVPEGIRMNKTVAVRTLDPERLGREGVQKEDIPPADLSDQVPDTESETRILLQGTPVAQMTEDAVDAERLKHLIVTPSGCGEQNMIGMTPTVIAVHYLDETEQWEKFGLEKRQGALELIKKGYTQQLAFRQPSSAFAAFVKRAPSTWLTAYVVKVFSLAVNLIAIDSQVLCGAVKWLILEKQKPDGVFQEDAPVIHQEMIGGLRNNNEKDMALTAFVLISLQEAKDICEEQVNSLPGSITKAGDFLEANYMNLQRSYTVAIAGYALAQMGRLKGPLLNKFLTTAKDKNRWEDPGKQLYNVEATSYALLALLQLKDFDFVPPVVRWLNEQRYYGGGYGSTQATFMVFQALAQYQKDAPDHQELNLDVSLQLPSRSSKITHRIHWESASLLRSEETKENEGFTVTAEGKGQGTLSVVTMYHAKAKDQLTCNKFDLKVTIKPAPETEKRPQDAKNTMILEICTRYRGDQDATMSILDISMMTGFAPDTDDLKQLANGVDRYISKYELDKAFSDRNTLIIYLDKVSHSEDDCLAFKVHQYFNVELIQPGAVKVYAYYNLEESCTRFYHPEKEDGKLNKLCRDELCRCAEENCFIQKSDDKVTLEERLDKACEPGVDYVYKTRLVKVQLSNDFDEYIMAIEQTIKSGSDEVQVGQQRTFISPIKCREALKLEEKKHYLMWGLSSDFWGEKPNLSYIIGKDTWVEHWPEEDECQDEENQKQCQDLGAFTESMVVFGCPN
# Test: cell-based or functional assay
row,Binder,inhibition of hemolysis IC50
1,Ac-ESSAYCIWQDWGEHRCT-NH2 (disulfide 6-16; SMILES CC[C@H](C)[C@@H]1NC(=O)[C@@H](NC(=O)[C@H](Cc2ccc(O)cc2)NC(=O)[C@H](C)NC(=O)[C@H](CO)NC(=O)[C@H](CO)NC(=O)[C@H](CCC(=O)O)NC(C)=O)CSSC[C@@H](C(=O)N[C@H](C(N)=O)[C@@H](C)O)NC(=O)[C@H](CCCNC(=N)N)NC(=O)[C@H](Cc2c[nH]cn2)NC(=O)[C@H](CCC(=O)O)NC(=O)CNC(=O)[C@H](Cc2c[nH]c3ccccc23)NC(=O)[C@H](CC(=O)O)NC(=O)[C@H](CCC(N)=O)NC(=O)[C@H](Cc2c[nH]c3ccccc23)NC1=O) [Compound 10],< 100 nM
2,Ac-ICIWQDWGEHRCTEA-NH2 (disulfide 2-12; SMILES CC[C@H](C)[C@H](NC(C)=O)C(=O)N[C@H]1CSSC[C@@H](C(=O)N[C@H](C(=O)N[C@@H](CCC(=O)O)C(=O)N[C@@H](C)C(N)=O)[C@@H](C)O)NC(=O)[C@H](CCCNC(=N)N)NC(=O)[C@H](Cc2c[nH]cn2)NC(=O)[C@H](CCC(=O)O)NC(=O)CNC(=O)[C@H](Cc2c[nH]c3ccccc23)NC(=O)[C@H](CC(=O)O)NC(=O)[C@H](CCC(N)=O)NC(=O)[C@H](Cc2c[nH]c3ccccc23)NC(=O)[C@H]([C@@H](C)CC)NC1=O) [Compound 25],< 100 nM
3,Ac-ICIWQDWGRHRCT-NH2 (disulfide 2-12; SMILES CC[C@H](C)[C@H](NC(C)=O)C(=O)N[C@H]1CSSC[C@@H](C(=O)N[C@H](C(N)=O)[C@@H](C)O)NC(=O)[C@H](CCCNC(=N)N)NC(=O)[C@H](Cc2c[nH]cn2)NC(=O)[C@H](CCCNC(=N)N)NC(=O)CNC(=O)[C@H](Cc2c[nH]c3ccccc23)NC(=O)[C@H](CC(=O)O)NC(=O)[C@H](CCC(N)=O)NC(=O)[C@H](Cc2c[nH]c3ccccc23)NC(=O)[C@H]([C@@H](C)CC)NC1=O) [Compound 18],< 100 nM
4,Ac-ICIWQDWGDHRCT-NH2 (disulfide 2-12; SMILES CC[C@H](C)[C@H](NC(C)=O)C(=O)N[C@H]1CSSC[C@@H](C(=O)N[C@H](C(N)=O)[C@@H](C)O)NC(=O)[C@H](CCCNC(=N)N)NC(=O)[C@H](Cc2c[nH]cn2)NC(=O)[C@H](CC(=O)O)NC(=O)CNC(=O)[C@H](Cc2c[nH]c3ccccc23)NC(=O)[C@H](CC(=O)O)NC(=O)[C@H](CCC(N)=O)NC(=O)[C@H](Cc2c[nH]c3ccccc23)NC(=O)[C@H]([C@@H](C)CC)NC1=O) [Compound 17],< 100 nM
5,Ac-ICIWQDWGEHRC[Sar]-NH2 (disulfide 2-12; SMILES CC[C@H](C)[C@H](NC(C)=O)C(=O)N[C@H]1CSSC[C@@H](C(=O)N(C)CC(N)=O)NC(=O)[C@H](CCCNC(=N)N)NC(=O)[C@H](Cc2c[nH]cn2)NC(=O)[C@H](CCC(=O)O)NC(=O)CNC(=O)[C@H](Cc2c[nH]c3ccccc23)NC(=O)[C@H](CC(=O)O)NC(=O)[C@H](CCC(N)=O)NC(=O)[C@H](Cc2c[nH]c3ccccc23)NC(=O)[C@H]([C@@H](C)CC)NC1=O) [Compound 13],< 100 nM
6,Ac-EGEICIWQDWGEHRCT-NH2 (disulfide 5-15; SMILES CC[C@H](C)[C@@H]1NC(=O)[C@@H](NC(=O)[C@@H](NC(=O)[C@H](CCC(=O)O)NC(=O)CNC(=O)[C@H](CCC(=O)O)NC(C)=O)[C@@H](C)CC)CSSC[C@@H](C(=O)N[C@H](C(N)=O)[C@@H](C)O)NC(=O)[C@H](CCCNC(=N)N)NC(=O)[C@H](Cc2c[nH]cn2)NC(=O)[C@H](CCC(=O)O)NC(=O)CNC(=O)[C@H](Cc2c[nH]c3ccccc23)NC(=O)[C@H](CC(=O)O)NC(=O)[C@H](CCC(N)=O)NC(=O)[C@H](Cc2c[nH]c3ccccc23)NC1=O) [Compound 30],< 100 nM
7,Ac-[Sar]CIWQDWGEHRCT-NH2 (disulfide 2-12; SMILES CC[C@H](C)[C@@H]1NC(=O)[C@@H](NC(=O)CN(C)C(C)=O)CSSC[C@@H](C(=O)N[C@H](C(N)=O)[C@@H](C)O)NC(=O)[C@H](CCCNC(=N)N)NC(=O)[C@H](Cc2c[nH]cn2)NC(=O)[C@H](CCC(=O)O)NC(=O)CNC(=O)[C@H](Cc2c[nH]c3ccccc23)NC(=O)[C@H](CC(=O)O)NC(=O)[C@H](CCC(N)=O)NC(=O)[C@H](Cc2c[nH]c3ccccc23)NC1=O) [Compound 11],< 100 nM
8,Ac-SEFCI[Trp(1-Me)]QDW[Sar]EHRC[Sar]E-{AEEA-AEEA-X1-NH2} (disulfide 4-14; SMILES CC[C@H](C)[C@@H]1NC(=O)[C@@H](NC(=O)[C@H](Cc2ccccc2)NC(=O)[C@H](CCC(=O)O)NC(=O)[C@H](CO)NC(C)=O)CSSC[C@@H](C(=O)N(C)CC(=O)N[C@@H](CCC(=O)O)C(=O)NCCOCCOCC(=O)NCCOCCOCC(=O)N[C@@H](CCCCNC(=O)CC[C@H](NC(=O)CNC(=O)CC[C@H](NC(=O)CCCCCCCCCCCCCCCCC(=O)O)C(=O)O)C(=O)O)C(N)=O)NC(=O)[C@H](CCCNC(=N)N)NC(=O)[C@H](Cc2c[nH]cn2)NC(=O)[C@H](CCC(=O)O)NC(=O)CN(C)C(=O)[C@H](Cc2c[nH]c3ccccc23)NC(=O)[C@H](CC(=O)O)NC(=O)[C@H](CCC(N)=O)NC(=O)[C@H](Cc2cn(C)c3ccccc23)NC1=O) [Compound 144],< 100 nM
9,Ac-ICIWQEWGEHRCT-NH2 (disulfide 2-12; SMILES CC[C@H](C)[C@H](NC(C)=O)C(=O)N[C@H]1CSSC[C@@H](C(=O)N[C@H](C(N)=O)[C@@H](C)O)NC(=O)[C@H](CCCNC(=N)N)NC(=O)[C@H](Cc2c[nH]cn2)NC(=O)[C@H](CCC(=O)O)NC(=O)CNC(=O)[C@H](Cc2c[nH]c3ccccc23)NC(=O)[C@H](CCC(=O)O)NC(=O)[C@H](CCC(N)=O)NC(=O)[C@H](Cc2c[nH]c3ccccc23)NC(=O)[C@H]([C@@H](C)CC)NC1=O) [Compound 16],< 100 nM
10,Ac-ICIWQDWGEHRCE-NH2 (disulfide 2-12; SMILES CC[C@H](C)[C@H](NC(C)=O)C(=O)N[C@H]1CSSC[C@@H](C(=O)N[C@@H](CCC(=O)O)C(N)=O)NC(=O)[C@H](CCCNC(=N)N)NC(=O)[C@H](Cc2c[nH]cn2)NC(=O)[C@H](CCC(=O)O)NC(=O)CNC(=O)[C@H](Cc2c[nH]c3ccccc23)NC(=O)[C@H](CC(=O)O)NC(=O)[C@H](CCC(N)=O)NC(=O)[C@H](Cc2c[nH]c3ccccc23)NC(=O)[C@H]([C@@H](C)CC)NC1=O) [Compound 22],< 100 nM
11,Ac-ICIWQDWGEHRCTE-NH2 (disulfide 2-12; SMILES CC[C@H](C)[C@H](NC(C)=O)C(=O)N[C@H]1CSSC[C@@H](C(=O)N[C@H](C(=O)N[C@@H](CCC(=O)O)C(N)=O)[C@@H](C)O)NC(=O)[C@H](CCCNC(=N)N)NC(=O)[C@H](Cc2c[nH]cn2)NC(=O)[C@H](CCC(=O)O)NC(=O)CNC(=O)[C@H](Cc2c[nH]c3ccccc23)NC(=O)[C@H](CC(=O)O)NC(=O)[C@H](CCC(N)=O)NC(=O)[C@H](Cc2c[nH]c3ccccc23)NC(=O)[C@H]([C@@H](C)CC)NC1=O) [Compound 26],< 100 nM
12,Ac-ESSAICIWQDWGEHRCTGAES-NH2 (disulfide 6-16; SMILES CC[C@H](C)[C@H](NC(=O)[C@H](C)NC(=O)[C@H](CO)NC(=O)[C@H](CO)NC(=O)[C@H](CCC(=O)O)NC(C)=O)C(=O)N[C@H]1CSSC[C@@H](C(=O)N[C@H](C(=O)NCC(=O)N[C@@H](C)C(=O)N[C@@H](CCC(=O)O)C(=O)N[C@@H](CO)C(N)=O)[C@@H](C)O)NC(=O)[C@H](CCCNC(=N)N)NC(=O)[C@H](Cc2c[nH]cn2)NC(=O)[C@H](CCC(=O)O)NC(=O)CNC(=O)[C@H](Cc2c[nH]c3ccccc23)NC(=O)[C@H](CC(=O)O)NC(=O)[C@H](CCC(N)=O)NC(=O)[C@H](Cc2c[nH]c3ccccc23)NC(=O)[C@H]([C@@H](C)CC)NC1=O) [Compound 14],< 100 nM
13,Ac-ICIWQDWGAHRCE-NH2 (disulfide 2-12; SMILES CC[C@H](C)[C@H](NC(C)=O)C(=O)N[C@H]1CSSC[C@@H](C(=O)N[C@@H](CCC(=O)O)C(N)=O)NC(=O)[C@H](CCCNC(=N)N)NC(=O)[C@H](Cc2c[nH]cn2)NC(=O)[C@H](C)NC(=O)CNC(=O)[C@H](Cc2c[nH]c3ccccc23)NC(=O)[C@H](CC(=O)O)NC(=O)[C@H](CCC(N)=O)NC(=O)[C@H](Cc2c[nH]c3ccccc23)NC(=O)[C@H]([C@@H](C)CC)NC1=O) [Compound 12],< 100 nM
14,Ac-EFCI[Trp(1-Me)]QDWGEHRC[Sar]EA-{AEEA-AEEA-X1-NH2} (disulfide 3-13; SMILES CC[C@H](C)[C@@H]1NC(=O)[C@@H](NC(=O)[C@H](Cc2ccccc2)NC(=O)[C@H](CCC(=O)O)NC(C)=O)CSSC[C@@H](C(=O)N(C)CC(=O)N[C@@H](CCC(=O)O)C(=O)N[C@@H](C)C(=O)NCCOCCOCC(=O)NCCOCCOCC(=O)N[C@@H](CCCCNC(=O)CC[C@H](NC(=O)CNC(=O)CC[C@H](NC(=O)CCCCCCCCCCCCCCCCC(=O)O)C(=O)O)C(=O)O)C(N)=O)NC(=O)[C@H](CCCNC(=N)N)NC(=O)[C@H](Cc2c[nH]cn2)NC(=O)[C@H](CCC(=O)O)NC(=O)CNC(=O)[C@H](Cc2c[nH]c3ccccc23)NC(=O)[C@H](CC(=O)O)NC(=O)[C@H](CCC(N)=O)NC(=O)[C@H](Cc2cn(C)c3ccccc23)NC1=O) [Compound 145],< 100 nM
15,Ac-ICIWQDWGEHRCEGE-NH2 (disulfide 2-12; SMILES CC[C@H](C)[C@H](NC(C)=O)C(=O)N[C@H]1CSSC[C@@H](C(=O)N[C@@H](CCC(=O)O)C(=O)NCC(=O)N[C@@H](CCC(=O)O)C(N)=O)NC(=O)[C@H](CCCNC(=N)N)NC(=O)[C@H](Cc2c[nH]cn2)NC(=O)[C@H](CCC(=O)O)NC(=O)CNC(=O)[C@H](Cc2c[nH]c3ccccc23)NC(=O)[C@H](CC(=O)O)NC(=O)[C@H](CCC(N)=O)NC(=O)[C@H](Cc2c[nH]c3ccccc23)NC(=O)[C@H]([C@@H](C)CC)NC1=O) [Compound 27],< 100 nM

# Reference: patent US11965039B2, “Compstatin analogues and their medical uses” (priority 2018, dated 2024)
